Laboratory results as given in US20240294945.

Experiments:
Test in all cases: cell_activity
[1] = tested on: ATP6 mt-DdCBE left (synthetic)
[2] = tested on: 16S rDNA cp-DdCBE right (synthetic); conditions: pair, mRNA in lettuce protoplasts
[3] = tested on: 16S rDNA cp-DdCBE left (synthetic); conditions: pair, mRNA in lettuce protoplasts
[4] = tested on: ATP6 (lettuce) mt-DdCBE right (synthetic); conditions: pair, lettuce protoplasts; first printed repeat NG vs G in site
[5] = tested on: mouse ND5 silent DdCBE right (synthetic); conditions: pair, NIH3T3
[6] = biological target: mDdCBE ND4 TALE-GSVG DddAtox (synthetic) (UniProt P14727); conditions: monomeric full-length DddAtox
[7] = biological target: mDdCBE ND4 TALE-E1347A DddAtox (synthetic) (UniProt P14727); conditions: monomeric full-length DddAtox
[8] = biological target: ND4 TALE-TadA* (synthetic) (UniProt P14727); conditions: A-to-G editing

“TATTGGCATTACTATAG (double strand) [ATP6 left TALE site]” was tested, and the activity [1] was 23%.

“TGTGCGGGCCCCCGTCAA (double strand) [16S rDNA right TALE site]” was tested, and the activity [2] was < 25%.

“GGGGAGTACGTTCGCAAG (double strand) [16S rDNA left TALE site]” was tested, and the activity [3] was < 25%.

“GAAAAAATGAAGCCCA (double strand) [ATP6 lettuce right TALE site]” was tested, and the activity [4] was 23%.

“TTAAAATAAAGTTATTATT (double strand) [ND5 silent right TALE site]” was tested, and the activity [5] was < 19%.

With ND4 TALE target the activity [6] was < 31%, the activity [7] was < 7.2% and the activity [8] was < 0.6%.
